Assay results taken from PMC3792966.

Target: FevR of F. holarctica LVS fused to the Zif protein (F. holarctica LVS)
Assay: two-hybrid

For “MglA/SspA complex of the bridge two-hybrid system (MglA of F. tularensis SCHU S4 fused to ω, with Ss”, the β-galactosidase activity in strain AW23 after 300 min was 1070 AU and the β-galactosidase activity in strain AW24 after 300 min was 1300 AU.
